T1: human CEACAM3 protein (human, UniProt P40198 35-155)
T1 construct: Bought protein; also called huCEACAM3
T1 sequence (looked up): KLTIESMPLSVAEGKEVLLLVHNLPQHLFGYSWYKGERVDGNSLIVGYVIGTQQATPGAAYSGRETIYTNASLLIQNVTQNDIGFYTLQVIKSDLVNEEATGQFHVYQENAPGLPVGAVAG

T2: human CEACAM8 protein (human, UniProt P31997 35-320)
T2 construct: Bought protein; also called huCEACAM8
T2 sequence (looked up): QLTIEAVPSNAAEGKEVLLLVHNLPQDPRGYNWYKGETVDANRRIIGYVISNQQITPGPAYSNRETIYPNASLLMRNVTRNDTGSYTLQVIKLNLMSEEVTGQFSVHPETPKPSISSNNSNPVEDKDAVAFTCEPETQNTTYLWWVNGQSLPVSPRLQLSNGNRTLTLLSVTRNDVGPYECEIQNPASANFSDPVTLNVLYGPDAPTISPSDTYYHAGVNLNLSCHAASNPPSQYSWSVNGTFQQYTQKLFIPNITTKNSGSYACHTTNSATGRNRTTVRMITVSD

T3: human CEACAM1 protein (human, UniProt P13688 35-428)
T3 construct: also called huCEACAM1
T3 sequence (looked up): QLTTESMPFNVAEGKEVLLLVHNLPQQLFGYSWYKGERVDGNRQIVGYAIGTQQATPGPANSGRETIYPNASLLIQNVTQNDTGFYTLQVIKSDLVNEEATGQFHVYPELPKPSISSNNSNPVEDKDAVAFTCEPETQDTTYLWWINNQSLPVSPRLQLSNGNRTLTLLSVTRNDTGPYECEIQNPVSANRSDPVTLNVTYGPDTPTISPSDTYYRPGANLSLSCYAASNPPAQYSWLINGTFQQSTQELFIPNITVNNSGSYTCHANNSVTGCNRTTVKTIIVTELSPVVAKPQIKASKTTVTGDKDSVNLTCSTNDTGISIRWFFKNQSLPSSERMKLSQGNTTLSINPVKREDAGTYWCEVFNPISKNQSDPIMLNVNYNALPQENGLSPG

T4: human CEACAM6 protein (human, UniProt P40199 35-320)
T4 construct: also called huCEACAM6
T4 sequence (looked up): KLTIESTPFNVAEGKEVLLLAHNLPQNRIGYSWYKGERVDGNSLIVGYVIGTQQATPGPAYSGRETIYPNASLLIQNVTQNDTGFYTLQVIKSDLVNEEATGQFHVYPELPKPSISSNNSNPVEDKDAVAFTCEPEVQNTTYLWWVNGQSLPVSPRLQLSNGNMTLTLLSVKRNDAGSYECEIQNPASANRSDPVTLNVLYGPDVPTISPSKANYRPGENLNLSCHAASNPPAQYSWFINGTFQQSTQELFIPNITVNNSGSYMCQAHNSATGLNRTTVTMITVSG

T5: human CEACAM6 on 293T cells (293T-huCEACAM6 cells) (human, UniProt P40199 35-320)
T5 sequence (looked up): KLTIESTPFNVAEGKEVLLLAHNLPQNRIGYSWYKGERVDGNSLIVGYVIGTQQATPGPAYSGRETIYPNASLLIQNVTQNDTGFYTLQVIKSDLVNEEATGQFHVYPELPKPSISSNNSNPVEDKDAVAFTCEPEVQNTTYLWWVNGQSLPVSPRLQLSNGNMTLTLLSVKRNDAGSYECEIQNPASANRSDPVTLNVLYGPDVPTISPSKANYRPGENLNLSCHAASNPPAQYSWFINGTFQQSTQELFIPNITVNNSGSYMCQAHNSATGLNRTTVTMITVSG

T6: recombinant human CEACAM6 Fc-tag protein (human, UniProt P40199 35-320, limits assumed)
T6 construct: also called huCEACAM6 (Octet); not shown: Fc tag
T6 sequence (looked up): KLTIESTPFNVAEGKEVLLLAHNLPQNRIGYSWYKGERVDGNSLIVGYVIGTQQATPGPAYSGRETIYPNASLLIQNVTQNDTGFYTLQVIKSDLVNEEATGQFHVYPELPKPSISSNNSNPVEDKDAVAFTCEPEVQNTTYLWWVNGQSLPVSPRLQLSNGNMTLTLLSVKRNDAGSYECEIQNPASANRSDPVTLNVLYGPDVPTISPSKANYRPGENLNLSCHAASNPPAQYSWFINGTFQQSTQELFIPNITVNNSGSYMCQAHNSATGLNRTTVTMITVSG

T7: human CEACAM5 protein (human, UniProt P06731 35-685)
T7 construct: also called huCEACAM5
T7 sequence (looked up): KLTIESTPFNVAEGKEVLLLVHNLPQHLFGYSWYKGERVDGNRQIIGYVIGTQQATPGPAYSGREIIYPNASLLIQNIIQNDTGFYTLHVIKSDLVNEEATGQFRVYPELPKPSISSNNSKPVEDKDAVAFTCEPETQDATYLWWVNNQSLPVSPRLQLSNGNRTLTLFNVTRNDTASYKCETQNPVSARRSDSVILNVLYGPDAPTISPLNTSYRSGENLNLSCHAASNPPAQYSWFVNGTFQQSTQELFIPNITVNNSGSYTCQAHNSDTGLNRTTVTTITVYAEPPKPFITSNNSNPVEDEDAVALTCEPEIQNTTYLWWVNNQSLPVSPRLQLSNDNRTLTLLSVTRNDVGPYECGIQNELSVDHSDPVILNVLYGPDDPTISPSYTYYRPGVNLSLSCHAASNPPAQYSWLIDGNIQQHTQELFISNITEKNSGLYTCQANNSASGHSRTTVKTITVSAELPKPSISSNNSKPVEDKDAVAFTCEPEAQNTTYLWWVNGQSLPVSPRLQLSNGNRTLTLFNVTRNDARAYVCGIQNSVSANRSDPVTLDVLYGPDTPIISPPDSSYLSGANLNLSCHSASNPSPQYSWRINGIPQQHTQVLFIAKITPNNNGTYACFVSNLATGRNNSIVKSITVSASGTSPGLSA


Legend:
human CEACAM3 protein = target: T1, human CEACAM3 protein; experiment: ELISA, antigen coated on plate
Text: (§1) Binding of recombinant anti-CEACAM5/6 dual-binding monoclonal antibodies against human and cynomolgus CEACAM5, and human CEACAM6 (Uniprot P40199), human CEACAM 1, 3 (NP_001806.2, Sino Biological 11933-H08H) and 8 (NP_001807.2, Acro Bio CE8-H5224) were detected by ELISA. Anti-CEACAM5/6 dual-antibodies were serially diluted in staining buffer (PBS containing 2% FBS). […] ELISA was used to test the binding between antibody containing supernatant or purified antibodies and the antigen. Briefly, the antigens were coated on a 96-well high binding plate overnight at 4° C. The plate was washed with PBST three times, incubated with blocking buffer (2% Bovine Serum Albumin) for one hour at 37° C., washed with PBST three times and incubated with antibody containing supernatant or purified antibodies at desired dilutions or concentrations for one hour at 37° C. A secondary antibody, anti-human Fc-HRP (Jackson Laboratory, 109-035-097) was used for detection of the targeted antibody. TMB and stopping solution were used for detection of HRP signal. The HRP signal was read on a SPECTRAMAX plate reader.

cyno CEACAM5 protein = target: T8, cyno CEACAM5 protein (cynomolgus monkey); experiment: ELISA, antigen coated on plate
T8 construct: also called cynomolgus CEACAM5
Text: as §1

human CEACAM8 protein = target: T2, human CEACAM8 protein; experiment: ELISA, antigen coated on plate
Text: as §1

human CEACAM1 protein = target: T3, human CEACAM1 protein; experiment: ELISA, antigen coated on plate
Text: as §1

human CEACAM6 protein = target: T4, human CEACAM6 protein; experiment: ELISA, antigen coated on plate
Text: as §1

[1] = target: T9, cynomolgus CEACAM5 on CHO-K1 cells (CHOK1-cyno CEACAM5 cells) (cynomolgus monkey); experiment: flow cytometry on CHOK1-cyno CEACAM5 cells
T9 construct: whole, on cells; also called CHOK1-cynoCECAM5
Description: (§2) Binding of recombinant anti-CEACAM5/6 dual-binding antibodies against human or cynomolgus CEACAM5 or CEACAM6 stable cells were detected by flow cytometry. […] Anti-CEACAM5/6 dual-binding antibodies were incubated with the stable cell lines. Anti-CEACAM5/6 dual-binding antibodies were serially diluted in staining buffer (PBS containing 2% FBS). 50 μL of diluted antibody solution was added to 50 μL of cell suspension containing 1-2×10⁵ cells and incubated at 4° C. for 1 hour. […] After 1-hour incubation at 4° C., cells were washed twice and run on a flow cytometer. […] The results were shown in FIGS. 8-10 and Tables 6 below.

[2] = target: T5, human CEACAM6 on 293T cells …; experiment: cell-based or functional assay
[3] = target: T6, recombinant human CEACAM6 Fc-tag protein; experiment: Octet (BLI), antibody on AHC sensor, antigen in solution
Description: Binding kinetics of recombinant anti-CEACAM5/6 antibodies to CEACAM5 and CEACAM6 were analyzed by Octet. In Octet analysis, recombinant human CEACAM5 Fc-tag protein (#Uniprot P06731) or CEACAM6 Fc-tag protein (Uniprot P40199) was serially diluted with 1×kinetic buffer (Fortebio). Anti-CEACAM5/6 dual-binding antibodies were diluted to 5 μg/mL. Then diluted antibodies, antigen and regeneration buffer (10 mM glycine pH 1.75) were added to 96-well plates (Greiner). Rate constants for association and dissociation were measured using AHC sensor (Fortebio). The sensor surface was regenerated after each binding experiment with regeneration buffer. The traces were processed using ForteBio Data Analysis Software (version 8.0, Pall ForteBio, CA, USA).

[4] = target: T5, human CEACAM6 on 293T cells …; experiment: flow cytometry on 293T-huCEACAM6 cells
Description: as §2

human CEACAM5 protein = target: T7, human CEACAM5 protein; experiment: ELISA, antigen coated on plate
Text: as §1

[5] = target: T5, human CEACAM6 on 293T cells …; experiment: flow cytometry on 293T-huCEACAM6 cells with against without 100 nM soluble CEACAM6
[6] = target: T5, human CEACAM6 on 293T cells …; experiment: flow cytometry on 293T-huCEACAM6 cells, Alexa Fluor 488 anti-human IgG, MFI
Description: as §2

binding result (human CEACAM3 protein)	EC50 (cyno CEACAM5 protein) [nM]	binding result (human CEACAM8 protein)	binding result (human CEACAM1 protein)	binding result (human CEACAM6 protein)	EC50 [1] [nM]	Internalization of pHAb-dye-labelled antibody, MFI (37° C.-4° C.)/DAR [2]	binding result [3]	binding result [4]	binding result (human CEACAM5 protein)	EC50 (human CEACAM6 protein) [nM]	fold change of EC50 at the presence of 100 nM soluble protein [5] [fold]	EC50 (read off the curve) [6] [nM]	Binder
no binding	0.01	no binding	no binding	no binding	33.4	1260	no binding	no binding	–	–	–	–	PR303561 (Tusamitamab) (antibody, human IgG1, kappa, V domains shown, also called PR003561; SAR408377) VH: EVQLQESGPGLVKPGGSLSLSCAASGFVFSSYDMSWVRQTPERGLEWVAYISSGGGITYAPSTVKGRFTVSRDNAKNTLYLQMNSLTSEDTAVYYCAAHYFGSSGPFAYWGQGTLVTVSS VL: DIQMTQSPASLSASVGDRVTITCRASENIFSYLAWYQQKPGKSPKLLVYNTRTLAEGVPSRFSGSGSGTDFSLTISSLQPEDFATYYCQHHYGTPFTFGSGTKLEIKR
no binding	–	no binding	no binding	–	–	–	–	–	no binding	0.01	7.3	~0.6	PR303563 (Tinurilimab) (antibody, human IgG2, kappa, V domains shown, also called BAY-1834942) VH: QVTLRESGPALVKPTQTLTLTCTFSGFSLSTYGIGVGWIRQPPGKALEWLAHIWWNDNKYYSTSLKTRLTISKDTSKNQVVLTMTNMDPVDTATYYCARISLPYFDYWGQGTTLTVSS VL: DIQLTQSPSFLSASVGDRVTITCKASQNVGTAVAWYQQKPGKAPKLLIYSASNRYTGVPSRFSGSGSGTEFTLTISSLQPEDFATYYCQQYSSYPLTFGGGTKVEIKR

— US20260258125A1 (NONA BIOSCIENCES SUZHOU, published 2026)
